Numbered stars: 1 amine (or outer) side, 2 acyl side, 3 side chain; on linkers, the order of the positions; unused ones are H or OH. Square brackets hold non-standard residues; d marks the D form. Side chains are listed from the residue outwards. Ends that are not written are not given here. * marks the point of attachment. C20 diacid = O=C(O)CCCCCCCCCCCCCCCCCCC(=O)*; γGlu = O=C(O)[C@H](CCC(=O)[*:2])N[*:1]; AEEA = NCCOCCOCC(=O)O; Aib = CC(C)(N)C(=O)O
B1: Example 43 (peptide)
peptide: Y[Aib]EGTFTSDYSILLDKIAQ[Aib]AFIEYLIEGGPSSK([AEEA-AEEA-γGlu-C20 diacid])APPPS-NH2
modifications: N-terminus assumed
SMILES: CC[C@H](C)[C@H](NC(=O)[C@H](CCCCN)NC(=O)[C@H](CC(=O)O)NC(=O)[C@H](CC(C)C)NC(=O)[C@H](CC(C)C)NC(=O)[C@@H](NC(=O)[C@H](CO)NC(=O)[C@H](Cc1ccc(O)cc1)NC(=O)[C@H](CC(=O)O)NC(=O)[C@H](CO)NC(=O)[C@@H](NC(=O)[C@H](Cc1ccccc1)NC(=O)[C@@H](NC(=O)CNC(=O)[C@H](CCC(=O)O)NC(=O)C(C)(C)NC(=O)[C@@H](N)Cc1ccc(O)cc1)[C@@H](C)O)[C@@H](C)O)[C@@H](C)CC)C(=O)N[C@@H](C)C(=O)N[C@@H](CCC(N)=O)C(=O)NC(C)(C)C(=O)N[C@@H](C)C(=O)N[C@@H](Cc1ccccc1)C(=O)N[C@H](C(=O)N[C@@H](CCC(=O)O)C(=O)N[C@@H](Cc1ccc(O)cc1)C(=O)N[C@@H](CC(C)C)C(=O)N[C@H](C(=O)N[C@@H](CCC(=O)O)C(=O)NCC(=O)NCC(=O)N1CCC[C@H]1C(=O)N[C@@H](CO)C(=O)N[C@@H](CO)C(=O)N[C@@H](CCCCNC(=O)COCCOCCNC(=O)COCCOCCNC(=O)CC[C@H](NC(=O)CCCCCCCCCCCCCCCCCCC(=O)O)C(=O)O)C(=O)N[C@@H](C)C(=O)N1CCC[C@H]1C(=O)N1CCC[C@H]1C(=O)N1CCC[C@H]1C(=O)N[C@@H](CO)C(N)=O)[C@@H](C)CC)[C@@H](C)CC
B2: Example 44 (peptide)
peptide: Y[Aib]EGTFTSDYSILLDKIAQ[Aib]AFIEYLIEGGPSSGK([AEEA-AEEA-γGlu-C20 diacid])PPPS-NH2
modifications: N-terminus assumed
SMILES: CC[C@H](C)[C@H](NC(=O)[C@H](CCCCN)NC(=O)[C@H](CC(=O)O)NC(=O)[C@H](CC(C)C)NC(=O)[C@H](CC(C)C)NC(=O)[C@@H](NC(=O)[C@H](CO)NC(=O)[C@H](Cc1ccc(O)cc1)NC(=O)[C@H](CC(=O)O)NC(=O)[C@H](CO)NC(=O)[C@@H](NC(=O)[C@H](Cc1ccccc1)NC(=O)[C@@H](NC(=O)CNC(=O)[C@H](CCC(=O)O)NC(=O)C(C)(C)NC(=O)[C@@H](N)Cc1ccc(O)cc1)[C@@H](C)O)[C@@H](C)O)[C@@H](C)CC)C(=O)N[C@@H](C)C(=O)N[C@@H](CCC(N)=O)C(=O)NC(C)(C)C(=O)N[C@@H](C)C(=O)N[C@@H](Cc1ccccc1)C(=O)N[C@H](C(=O)N[C@@H](CCC(=O)O)C(=O)N[C@@H](Cc1ccc(O)cc1)C(=O)N[C@@H](CC(C)C)C(=O)N[C@H](C(=O)N[C@@H](CCC(=O)O)C(=O)NCC(=O)NCC(=O)N1CCC[C@H]1C(=O)N[C@@H](CO)C(=O)N[C@@H](CO)C(=O)NCC(=O)N[C@@H](CCCCNC(=O)COCCOCCNC(=O)COCCOCCNC(=O)CC[C@H](NC(=O)CCCCCCCCCCCCCCCCCCC(=O)O)C(=O)O)C(=O)N1CCC[C@H]1C(=O)N1CCC[C@H]1C(=O)N1CCC[C@H]1C(=O)N[C@@H](CO)C(N)=O)[C@@H](C)CC)[C@@H](C)CC
B3: Example 46 (peptide)
peptide: Y[Aib]EGTFTSDYSILLDKIAQ[Aib]AFIEYLIEGGPSSGAPK([AEEA-AEEA-γGlu-C20 diacid])PS-NH2
modifications: N-terminus assumed
SMILES: CC[C@H](C)[C@H](NC(=O)[C@H](CCCCN)NC(=O)[C@H](CC(=O)O)NC(=O)[C@H](CC(C)C)NC(=O)[C@H](CC(C)C)NC(=O)[C@@H](NC(=O)[C@H](CO)NC(=O)[C@H](Cc1ccc(O)cc1)NC(=O)[C@H](CC(=O)O)NC(=O)[C@H](CO)NC(=O)[C@@H](NC(=O)[C@H](Cc1ccccc1)NC(=O)[C@@H](NC(=O)CNC(=O)[C@H](CCC(=O)O)NC(=O)C(C)(C)NC(=O)[C@@H](N)Cc1ccc(O)cc1)[C@@H](C)O)[C@@H](C)O)[C@@H](C)CC)C(=O)N[C@@H](C)C(=O)N[C@@H](CCC(N)=O)C(=O)NC(C)(C)C(=O)N[C@@H](C)C(=O)N[C@@H](Cc1ccccc1)C(=O)N[C@H](C(=O)N[C@@H](CCC(=O)O)C(=O)N[C@@H](Cc1ccc(O)cc1)C(=O)N[C@@H](CC(C)C)C(=O)N[C@H](C(=O)N[C@@H](CCC(=O)O)C(=O)NCC(=O)NCC(=O)N1CCC[C@H]1C(=O)N[C@@H](CO)C(=O)N[C@@H](CO)C(=O)NCC(=O)N[C@@H](C)C(=O)N1CCC[C@H]1C(=O)N[C@@H](CCCCNC(=O)COCCOCCNC(=O)COCCOCCNC(=O)CC[C@H](NC(=O)CCCCCCCCCCCCCCCCCCC(=O)O)C(=O)O)C(=O)N1CCC[C@H]1C(=O)N[C@@H](CO)C(N)=O)[C@@H](C)CC)[C@@H](C)CC
B4: Example 48 (peptide)
peptide: Y[Aib]EGTFTSDYSILLDKIAQ[Aib]AFIEYLIEGGPSSGAPPPK([AEEA-AEEA-γGlu-C20 diacid])-NH2
modifications: N-terminus assumed
SMILES: CC[C@H](C)[C@H](NC(=O)[C@H](CCCCN)NC(=O)[C@H](CC(=O)O)NC(=O)[C@H](CC(C)C)NC(=O)[C@H](CC(C)C)NC(=O)[C@@H](NC(=O)[C@H](CO)NC(=O)[C@H](Cc1ccc(O)cc1)NC(=O)[C@H](CC(=O)O)NC(=O)[C@H](CO)NC(=O)[C@@H](NC(=O)[C@H](Cc1ccccc1)NC(=O)[C@@H](NC(=O)CNC(=O)[C@H](CCC(=O)O)NC(=O)C(C)(C)NC(=O)[C@@H](N)Cc1ccc(O)cc1)[C@@H](C)O)[C@@H](C)O)[C@@H](C)CC)C(=O)N[C@@H](C)C(=O)N[C@@H](CCC(N)=O)C(=O)NC(C)(C)C(=O)N[C@@H](C)C(=O)N[C@@H](Cc1ccccc1)C(=O)N[C@H](C(=O)N[C@@H](CCC(=O)O)C(=O)N[C@@H](Cc1ccc(O)cc1)C(=O)N[C@@H](CC(C)C)C(=O)N[C@H](C(=O)N[C@@H](CCC(=O)O)C(=O)NCC(=O)NCC(=O)N1CCC[C@H]1C(=O)N[C@@H](CO)C(=O)N[C@@H](CO)C(=O)NCC(=O)N[C@@H](C)C(=O)N1CCC[C@H]1C(=O)N1CCC[C@H]1C(=O)N1CCC[C@H]1C(=O)N[C@@H](CCCCNC(=O)COCCOCCNC(=O)COCCOCCNC(=O)CC[C@H](NC(=O)CCCCCCCCCCCCCCCCCCC(=O)O)C(=O)O)C(N)=O)[C@@H](C)CC)[C@@H](C)CC
B5: Example 45 (peptide)
peptide: Y[Aib]EGTFTSDYSILLDKIAQ[Aib]AFIEYLIEGGPSSGAK([AEEA-AEEA-γGlu-C20 diacid])PPS-NH2
modifications: N-terminus assumed
SMILES: CC[C@H](C)[C@H](NC(=O)[C@H](CCCCN)NC(=O)[C@H](CC(=O)O)NC(=O)[C@H](CC(C)C)NC(=O)[C@H](CC(C)C)NC(=O)[C@@H](NC(=O)[C@H](CO)NC(=O)[C@H](Cc1ccc(O)cc1)NC(=O)[C@H](CC(=O)O)NC(=O)[C@H](CO)NC(=O)[C@@H](NC(=O)[C@H](Cc1ccccc1)NC(=O)[C@@H](NC(=O)CNC(=O)[C@H](CCC(=O)O)NC(=O)C(C)(C)NC(=O)[C@@H](N)Cc1ccc(O)cc1)[C@@H](C)O)[C@@H](C)O)[C@@H](C)CC)C(=O)N[C@@H](C)C(=O)N[C@@H](CCC(N)=O)C(=O)NC(C)(C)C(=O)N[C@@H](C)C(=O)N[C@@H](Cc1ccccc1)C(=O)N[C@H](C(=O)N[C@@H](CCC(=O)O)C(=O)N[C@@H](Cc1ccc(O)cc1)C(=O)N[C@@H](CC(C)C)C(=O)N[C@H](C(=O)N[C@@H](CCC(=O)O)C(=O)NCC(=O)NCC(=O)N1CCC[C@H]1C(=O)N[C@@H](CO)C(=O)N[C@@H](CO)C(=O)NCC(=O)N[C@@H](C)C(=O)N[C@@H](CCCCNC(=O)COCCOCCNC(=O)COCCOCCNC(=O)CC[C@H](NC(=O)CCCCCCCCCCCCCCCCCCC(=O)O)C(=O)O)C(=O)N1CCC[C@H]1C(=O)N1CCC[C@H]1C(=O)N[C@@H](CO)C(N)=O)[C@@H](C)CC)[C@@H](C)CC
B6: Example 58 (peptide)
peptide: Y[Aib]EGTFTSDYSSLLDKK([AEEA-AEEA-γGlu-C20 diacid])AQ[Aib]AFIEYLIEGGPSSGAPPPS-NH2
modifications: N-terminus assumed
SMILES: CC[C@H](C)[C@H](NC(=O)[C@H](CC(C)C)NC(=O)[C@H](Cc1ccc(O)cc1)NC(=O)[C@H](CCC(=O)O)NC(=O)[C@@H](NC(=O)[C@H](Cc1ccccc1)NC(=O)[C@H](C)NC(=O)C(C)(C)NC(=O)[C@H](CCC(N)=O)NC(=O)[C@H](C)NC(=O)[C@H](CCCCNC(=O)COCCOCCNC(=O)COCCOCCNC(=O)CC[C@H](NC(=O)CCCCCCCCCCCCCCCCCCC(=O)O)C(=O)O)NC(=O)[C@H](CCCCN)NC(=O)[C@H](CC(=O)O)NC(=O)[C@H](CC(C)C)NC(=O)[C@H](CC(C)C)NC(=O)[C@H](CO)NC(=O)[C@H](CO)NC(=O)[C@H](Cc1ccc(O)cc1)NC(=O)[C@H](CC(=O)O)NC(=O)[C@H](CO)NC(=O)[C@@H](NC(=O)[C@H](Cc1ccccc1)NC(=O)[C@@H](NC(=O)CNC(=O)[C@H](CCC(=O)O)NC(=O)C(C)(C)NC(=O)[C@@H](N)Cc1ccc(O)cc1)[C@@H](C)O)[C@@H](C)O)[C@@H](C)CC)C(=O)N[C@@H](CCC(=O)O)C(=O)NCC(=O)NCC(=O)N1CCC[C@H]1C(=O)N[C@@H](CO)C(=O)N[C@@H](CO)C(=O)NCC(=O)N[C@@H](C)C(=O)N1CCC[C@H]1C(=O)N1CCC[C@H]1C(=O)N1CCC[C@H]1C(=O)N[C@@H](CO)C(N)=O

Biological target: T1, human GIP receptor (human, UniProt P48546 22-466)
T1 construct: whole, on cells; Used as crude membranes of stably transfected CHO cells; also called hGIPR
T1 sequence (looked up): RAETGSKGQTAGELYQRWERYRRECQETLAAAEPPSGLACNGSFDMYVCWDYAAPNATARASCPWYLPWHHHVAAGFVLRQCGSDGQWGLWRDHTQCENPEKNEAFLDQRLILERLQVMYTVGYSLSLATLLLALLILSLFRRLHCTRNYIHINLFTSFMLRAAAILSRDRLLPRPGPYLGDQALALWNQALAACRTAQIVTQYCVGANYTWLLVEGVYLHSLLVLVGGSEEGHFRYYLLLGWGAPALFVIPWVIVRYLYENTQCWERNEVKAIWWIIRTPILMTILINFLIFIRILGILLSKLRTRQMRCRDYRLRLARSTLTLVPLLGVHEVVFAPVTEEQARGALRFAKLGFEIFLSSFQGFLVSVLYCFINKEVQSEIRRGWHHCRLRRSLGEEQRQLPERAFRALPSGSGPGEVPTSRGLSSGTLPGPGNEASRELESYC
Experiment: SPA, [125I]-GIP displacement, hGIPR membranes

Binder	Ki [nM]
B1	0.101
B2	0.0516
B3	0.0852
B4	0.074
B5	0.0463
B6	0.105

Biological target: T2, human GLP-1 receptor (human, UniProt P43220 24-463)
T2 construct: whole, on cells; Used as crude membranes of stably transfected HEK293 cells; also called hGLP1R; hGLP-1R
Experiment: SPA, [125I]-GLP-1 displacement, hGLP-1R membranes

Binder	Ki [nM]
B1	11.8
B2	10.6
B3	13.4
B4	15.7
B5	5.65
B6	2.77

Biological target: T3, human glucagon receptor (human, UniProt P47871 26-477)
T3 construct: whole, on cells; Used as crude membranes of stably transfected HEK293 cells; also called hGcgR; hGLcgR
T3 sequence (P47871 26-477): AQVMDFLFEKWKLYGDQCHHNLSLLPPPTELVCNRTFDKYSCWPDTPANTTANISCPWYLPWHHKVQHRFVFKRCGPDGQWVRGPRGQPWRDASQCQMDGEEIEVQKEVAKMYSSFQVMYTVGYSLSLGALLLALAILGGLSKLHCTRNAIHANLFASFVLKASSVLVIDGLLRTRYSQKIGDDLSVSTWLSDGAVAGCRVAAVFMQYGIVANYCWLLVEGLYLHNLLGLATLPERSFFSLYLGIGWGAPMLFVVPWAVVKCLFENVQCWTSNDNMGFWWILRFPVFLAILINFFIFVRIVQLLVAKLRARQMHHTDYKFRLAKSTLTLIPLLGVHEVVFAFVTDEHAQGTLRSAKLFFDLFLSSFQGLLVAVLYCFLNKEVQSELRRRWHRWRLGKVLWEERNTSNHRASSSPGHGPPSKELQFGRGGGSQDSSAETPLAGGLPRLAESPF
Experiment: SPA, [125I]-Gcg displacement, hGcgR membranes

Binder	Ki [nM]
B1	134
B2	121
B3	133
B4	111
B5	11.1
B6	339
